The target in the assay is 5T4 antigen on the cell surface (A431 cells and 5T4 over-expressing recombinant MDA-MB-231 cells) (human) (UniProt Q13641). The assay can be described thus: flow cytometry (MFI) on 5T4-expressing cells, anti-Fc FITC detection.
5T4 antigen on the cell surface (A431 cells and 5T4 over-expressing recombinant MDA-MB-231 cells) (human), sequence (Q13641 32-420): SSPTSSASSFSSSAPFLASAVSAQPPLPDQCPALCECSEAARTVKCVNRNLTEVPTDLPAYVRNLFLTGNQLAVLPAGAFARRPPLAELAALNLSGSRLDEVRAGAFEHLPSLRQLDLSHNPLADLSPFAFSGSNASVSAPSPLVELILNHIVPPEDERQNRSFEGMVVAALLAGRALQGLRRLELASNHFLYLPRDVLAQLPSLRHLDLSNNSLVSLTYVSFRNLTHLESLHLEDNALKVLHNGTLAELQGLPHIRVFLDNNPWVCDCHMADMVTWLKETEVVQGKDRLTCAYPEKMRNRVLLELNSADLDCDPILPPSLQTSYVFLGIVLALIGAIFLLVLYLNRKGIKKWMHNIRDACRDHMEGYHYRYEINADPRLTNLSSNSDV

For the substance non-binding scFvFc fusion protein, the fold less binding than the anti-5T4 scFvFc molecules turned out to be 200 fold less.

The values above are taken from patent US11434278.
